Results from paper PMC8926328.

Biological target: HBsAg-SpyCatcher VLPs (hepatitis B virus)
Experiment: SDS-PAGE of the covalent conjugate

Question: “RBD-SpyTag (from UniProt P0DTC2) (domain or fragment)” was tested. Which fraction unconjugated did it give?
Answer: The fraction unconjugated was under 20%.
